Laboratory results: publication PMC10786891, “Massively parallel profiling of RNA-targeting CRISPR-Cas13d”

T1: EsCas13d, nuclease-dead (Eubacterium siraeum, UniProt B0MS50, R295A;H300A;R849A;H854A)
T1 sequence: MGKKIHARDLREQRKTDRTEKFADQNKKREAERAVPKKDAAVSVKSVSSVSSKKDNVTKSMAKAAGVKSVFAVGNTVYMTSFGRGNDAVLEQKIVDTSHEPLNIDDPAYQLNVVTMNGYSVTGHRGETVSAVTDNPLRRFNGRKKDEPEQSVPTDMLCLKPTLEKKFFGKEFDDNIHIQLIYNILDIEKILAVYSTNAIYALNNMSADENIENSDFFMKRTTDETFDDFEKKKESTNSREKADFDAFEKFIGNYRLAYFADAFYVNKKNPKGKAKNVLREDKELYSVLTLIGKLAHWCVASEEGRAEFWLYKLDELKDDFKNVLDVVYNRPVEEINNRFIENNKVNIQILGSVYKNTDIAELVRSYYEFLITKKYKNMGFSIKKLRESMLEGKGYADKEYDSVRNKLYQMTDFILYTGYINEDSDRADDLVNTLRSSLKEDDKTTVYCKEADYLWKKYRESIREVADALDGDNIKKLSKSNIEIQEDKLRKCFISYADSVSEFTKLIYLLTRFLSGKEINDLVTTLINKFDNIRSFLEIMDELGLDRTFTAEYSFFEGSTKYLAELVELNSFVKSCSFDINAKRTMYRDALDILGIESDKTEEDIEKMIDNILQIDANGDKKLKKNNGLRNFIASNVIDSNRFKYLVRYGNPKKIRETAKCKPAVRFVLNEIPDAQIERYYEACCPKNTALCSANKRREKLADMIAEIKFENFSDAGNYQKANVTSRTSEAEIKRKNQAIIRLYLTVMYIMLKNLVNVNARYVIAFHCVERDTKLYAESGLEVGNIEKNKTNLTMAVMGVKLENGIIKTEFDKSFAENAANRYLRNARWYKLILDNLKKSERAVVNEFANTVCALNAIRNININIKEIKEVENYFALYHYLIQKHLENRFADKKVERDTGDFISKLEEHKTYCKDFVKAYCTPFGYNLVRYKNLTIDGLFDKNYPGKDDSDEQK

B1: target 3 insC 3' of 20,insA 3' of 6 (mixed)
RNA 1: CACCCGUGCAAAAUUGCAGGGGUCUAAAACGACCUGAAUAUUUCAGAUCAAA
RNA 2: GGGAAUGGAUCCACAUCUACGAAUUCGUUUUUCGAUCUGAAAUAUUCAAGGUCUGCAGAUCGGAAGAGCACACGU
B2: target 3 U2A,U20C (mixed)
RNA 1: CACCCGUGCAAAAUUGCAGGGGUCUAAAACGACCUGAAUAUUUCAGAUCAAA
RNA 2: GGGAAUGGAUCCACAUCUACGAAUUCGUUUUCGAUCUGAAAUAUUCAGGACUGCAGAUCGGAAGAGCACACGU
B3: target 3 G19U,U22G (mixed)
RNA 1: CACCCGUGCAAAAUUGCAGGGGUCUAAAACGACCUGAAUAUUUCAGAUCAAA
RNA 2: GGGAAUGGAUCCACAUCUACGAAUUCGUUGUUUAUCUGAAAUAUUCAGGUCUGCAGAUCGGAAGAGCACACGU
B4: target 3 insA 3' of 10,insA 3' of 7 (mixed)
RNA 1: CACCCGUGCAAAAUUGCAGGGGUCUAAAACGACCUGAAUAUUUCAGAUCAAA
RNA 2: GGGAAUGGAUCCACAUCUACGAAUUCGUUUUUGAUCUGAAAUAAUUACAGGUCUGCAGAUCGGAAGAGCACACGU
B5: target 3 del6,del8 (mixed)
RNA 1: CACCCGUGCAAAAUUGCAGGGGUCUAAAACGACCUGAAUAUUUCAGAUCAAA
RNA 2: GGGAAUGGAUCCACAUCUACGAAUUCGUUUUUGAUCUGAAAUAUAGGUCUGCAGAUCGGAAGAGCACACGU
B6: target 3 G3A,U22A (mixed)
RNA 1: CACCCGUGCAAAAUUGCAGGGGUCUAAAACGACCUGAAUAUUUCAGAUCAAA
RNA 2: GGGAAUGGAUCCACAUCUACGAAUUCGUUAUUGAUCUGAAAUAUUCAGAUCUGCAGAUCGGAAGAGCACACGU
B7: target 3 G4C,U7A (mixed)
RNA 1: CACCCGUGCAAAAUUGCAGGGGUCUAAAACGACCUGAAUAUUUCAGAUCAAA
RNA 2: GGGAAUGGAUCCACAUCUACGAAUUCGUUUUUGAUCUGAAAUAUACACGUCUGCAGAUCGGAAGAGCACACGU
B8: target 3 insG 3' of 5,insG 3' of 2 (mixed)
RNA 1: CACCCGUGCAAAAUUGCAGGGGUCUAAAACGACCUGAAUAUUUCAGAUCAAA
RNA 2: GGGAAUGGAUCCACAUCUACGAAUUCGUUUUUGAUCUGAAAUAUUCAGGGUGCUGCAGAUCGGAAGAGCACACGU
B9: target 3 insC 3' of 7 (mixed)
RNA 1: CACCCGUGCAAAAUUGCAGGGGUCUAAAACGACCUGAAUAUUUCAGAUCAAA
RNA 2: GGGAAUGGAUCCACAUCUACGAAUUCGUUUUUGAUCUGAAAUAUUCCAGGUCUGCAGAUCGGAAGAGCACACGU
B10: target 3 C6U,U8G (mixed)
RNA 1: CACCCGUGCAAAAUUGCAGGGGUCUAAAACGACCUGAAUAUUUCAGAUCAAA
RNA 2: GGGAAUGGAUCCACAUCUACGAAUUCGUUUUUGAUCUGAAAUAGUUAGGUCUGCAGAUCGGAAGAGCACACGU
B11: target 3 del1,del2 (mixed)
RNA 1: CACCCGUGCAAAAUUGCAGGGGUCUAAAACGACCUGAAUAUUUCAGAUCAAA
RNA 2: GGGAAUGGAUCCACAUCUACGAAUUCGUUUUUGAUCUGAAAUAUUCAGGUGCAGAUCGGAAGAGCACACGU
B12: target 3 U2G,U10G (mixed)
RNA 1: CACCCGUGCAAAAUUGCAGGGGUCUAAAACGACCUGAAUAUUUCAGAUCAAA
RNA 2: GGGAAUGGAUCCACAUCUACGAAUUCGUUUUUGAUCUGAAAGAUUCAGGGCUGCAGAUCGGAAGAGCACACGU
B13: target 3 del1,del14 (mixed)
RNA 1: CACCCGUGCAAAAUUGCAGGGGUCUAAAACGACCUGAAUAUUUCAGAUCAAA
RNA 2: GGGAAUGGAUCCACAUCUACGAAUUCGUUUUUGAUCUAAAUAUUCAGGUUGCAGAUCGGAAGAGCACACGU
B14: target 3 insU 3' of 5,insG 3' of 2 (mixed)
RNA 1: CACCCGUGCAAAAUUGCAGGGGUCUAAAACGACCUGAAUAUUUCAGAUCAAA
RNA 2: GGGAAUGGAUCCACAUCUACGAAUUCGUUUUUGAUCUGAAAUAUUCAUGGUGCUGCAGAUCGGAAGAGCACACGU
B15: target 3 insA 3' of 22,insU 3' of 16 (mixed)
RNA 1: CACCCGUGCAAAAUUGCAGGGGUCUAAAACGACCUGAAUAUUUCAGAUCAAA
RNA 2: GGGAAUGGAUCCACAUCUACGAAUUCGUUUAUUGAUCUUGAAAUAUUCAGGUCUGCAGAUCGGAAGAGCACACGU
B16: target 3 G3A,G4A (mixed)
RNA 1: CACCCGUGCAAAAUUGCAGGGGUCUAAAACGACCUGAAUAUUUCAGAUCAAA
RNA 2: GGGAAUGGAUCCACAUCUACGAAUUCGUUUUUGAUCUGAAAUAUUCAAAUCUGCAGAUCGGAAGAGCACACGU
B17: target 3 insG 3' of 5,insC 3' of 5 (mixed)
RNA 1: CACCCGUGCAAAAUUGCAGGGGUCUAAAACGACCUGAAUAUUUCAGAUCAAA
RNA 2: GGGAAUGGAUCCACAUCUACGAAUUCGUUUUUGAUCUGAAAUAUUCAGCGGUCUGCAGAUCGGAAGAGCACACGU
B18: target 3 insA 3' of 19 (mixed)
RNA 1: CACCCGUGCAAAAUUGCAGGGGUCUAAAACGACCUGAAUAUUUCAGAUCAAA
RNA 2: GGGAAUGGAUCCACAUCUACGAAUUCGUUUUUGAAUCUGAAAUAUUCAGGUCUGCAGAUCGGAAGAGCACACGU
B19: target 3 A5U,A11G (mixed)
RNA 1: CACCCGUGCAAAAUUGCAGGGGUCUAAAACGACCUGAAUAUUUCAGAUCAAA
RNA 2: GGGAAUGGAUCCACAUCUACGAAUUCGUUUUUGAUCUGAAGUAUUCUGGUCUGCAGAUCGGAAGAGCACACGU
B20: target 3 insC 3' of 8,insG 3' of 5 (mixed)
RNA 1: CACCCGUGCAAAAUUGCAGGGGUCUAAAACGACCUGAAUAUUUCAGAUCAAA
RNA 2: GGGAAUGGAUCCACAUCUACGAAUUCGUUUUUGAUCUGAAAUAUCUCAGGGUCUGCAGAUCGGAAGAGCACACGU
B21: target 3 C6A,A11C (mixed)
RNA 1: CACCCGUGCAAAAUUGCAGGGGUCUAAAACGACCUGAAUAUUUCAGAUCAAA
RNA 2: GGGAAUGGAUCCACAUCUACGAAUUCGUUUUUGAUCUGAACUAUUAAGGUCUGCAGAUCGGAAGAGCACACGU
B22: target 3 insG 3' of 9,insU 3' of 3 (mixed)
RNA 1: CACCCGUGCAAAAUUGCAGGGGUCUAAAACGACCUGAAUAUUUCAGAUCAAA
RNA 2: GGGAAUGGAUCCACAUCUACGAAUUCGUUUUUGAUCUGAAAUAGUUCAGGUUCUGCAGAUCGGAAGAGCACACGU
B23: target 3 insG 3' of 8,insC 3' of 7 (mixed)
RNA 1: CACCCGUGCAAAAUUGCAGGGGUCUAAAACGACCUGAAUAUUUCAGAUCAAA
RNA 2: GGGAAUGGAUCCACAUCUACGAAUUCGUUUUUGAUCUGAAAUAUGUCCAGGUCUGCAGAUCGGAAGAGCACACGU
B24: target 3 G4U,U21A (mixed)
RNA 1: CACCCGUGCAAAAUUGCAGGGGUCUAAAACGACCUGAAUAUUUCAGAUCAAA
RNA 2: GGGAAUGGAUCCACAUCUACGAAUUCGUUUAUGAUCUGAAAUAUUCAUGUCUGCAGAUCGGAAGAGCACACGU
B25: target 3 G4A,C6U (mixed)
RNA 1: CACCCGUGCAAAAUUGCAGGGGUCUAAAACGACCUGAAUAUUUCAGAUCAAA
RNA 2: GGGAAUGGAUCCACAUCUACGAAUUCGUUUUUGAUCUGAAAUAUUUAAGUCUGCAGAUCGGAAGAGCACACGU
B26: target 1 C2A,A14G (mixed)
RNA 1: CACCCGUGCAAAAAUGCAGGGGUCUAAAACUGAGCGGAUAACCUCUCUAUGG
RNA 2: GGGAAUGGAUCCACAUCUACGAAUUCGUACCAUAGAGGGGUUAUCCGCUAACCGAGAUCGGAAGAGCACACGU
B27: target 1 insC 3' of 16,insC 3' of 14 (mixed)
RNA 1: CACCCGUGCAAAAAUGCAGGGGUCUAAAACUGAGCGGAUAACCUCUCUAUGG
RNA 2: GGGAAUGGAUCCACAUCUACGAAUUCGUACCAUAGACGACGGUUAUCCGCUCACCGAGAUCGGAAGAGCACACGU
B28: target 1 A9G,U10C (mixed)
RNA 1: CACCCGUGCAAAAAUGCAGGGGUCUAAAACUGAGCGGAUAACCUCUCUAUGG
RNA 2: GGGAAUGGAUCCACAUCUACGAAUUCGUACCAUAGAGAGGUCGUCCGCUCACCGAGAUCGGAAGAGCACACGU

These binders were tested against T1, EsCas13d, nuclease-dead (assay: crRNA (strand 1, pre-loaded); Mg2+; 40 mM Tris-HCl pH 7.5, 150 mM NaCl, 6 mM MgCl2, 1 mM DTT, 0.1% Tween-20, 0.2 mg/ml BSA; 25 C; 10 min per concentration, then washed). Details: tags: His6-TwinStrep-SUMO cleaved; N-terminal SNAP kept (SNAP-Surface 488); label: 3' end held by stalled T7 RNA polymerase.
Work on B1 yielded a Kd of 105 ± 43.5 nM. B2 showed a Kd of 74.5 ± 24 nM. B3 was tested, and the Kd was 108 ± 15 nM. In the case of B4, the Kd is reported as 52 ± 8 nM. For B5, the Kd was 70.5 ± 11 nM. Binder B6 has a Kd of 47 ± 10.5 nM. For B7, the Kd was 27.6 ± 3.05 nM. Work on B8 yielded a Kd of 26.6 ± 4.1 nM. B9 was tested, and the Kd was 90.5 ± 20.5 nM. B10 gave a Kd of 44.1 ± 3.35 nM. B11 gave a Kd of 44.5 ± 2.55 nM. B12 showed a Kd of ~105 nM. For B13, the Kd was 110 ± 55 nM. B14 showed a Kd of 6.95 ± 1 nM. For B15, the Kd was 71 ± 14 nM. With B16 the Kd was 8.7 ± 0.75 nM. B17 showed a Kd of 32.7 ± 4.05 nM. Work on B18 yielded a Kd of 83 ± 21.5 nM. With B19 the Kd was 100 ± 45 nM. Binder B20 has a Kd of 120 ± 50 nM. Work on B21 yielded a Kd of 45.2 ± 11.2 nM. In the case of B22, the Kd is reported as 43.5 ± 7 nM. B23 showed a Kd of 57 ± 9 nM. B24 was tested, and the Kd was 20.6 ± 2.15 nM. For B25, the Kd was 15.7 ± 1.25 nM. B26 showed a Kd of 13.5 ± 0.5 nM. For B27, the Kd was 75 ± 19 nM. Work on B28 yielded a Kd of 27.2 ± 1.4 nM.
